The data set has as its system retinal ganglion cells (RGCs). Nature of the data set: RGC loss after intraocular injection of α2 macroglobulin protein in normal eyes. In kind it is in vivo, rat. As for the experimental part:
RGCs were labeled with 3% DII (1,1-dioctadecyl-3,3,3,3-tetramethylindocarbocyanine perchlorate) or with 3% fluorogold. Briefly, Wistar rats were anesthetized and their heads were mounted in a stereotactic apparatus.
7 days after dye injection, the vasculature of the rats were perfused-fixed (transcardiac perfusion in phosphate-buffer (PB), followed by 4% PFA in PB) and the eyes were enucleated. After post-fixing for 1 hour cuts were made through the sclera to form a Maltese cross pattern and retinas detached from the eyecup at the optic nerve head. The retinas were flat-mounted on glass slides (vitreous side up) air-dried and cover-slipped with mounting medium (Molecular Probes). The retinas were observed under fluorescence microscopy (Zeiss). […] RGCs were recognized in flat mounted retinas by the presence of retrogradely transported dye and by morphology. RGCs in all 4 quadrants (16 images per retina) were averaged and presented as […] of area counted.
To evaluate the potential role of α2 macroglobulin in the death of RGCs, α2 macrobglobulin protein was microinjected in normal eyes to determine whether glaucoma-like RGC death ensued. In this paradigm, a total of 1-2 μg of α2 macroglobulin were delivered by a single intraocular injection in normal eyes, and surviving RGCs were counted at days 14 or 28 post-injection, by retrograde labeling. […]

B1: α2m: α2 macroglobulin protein injected intraocularly into normal rat eyes (protein, UniProt P06238 28-1472, looked up)
Alpha-2-macroglobulin: SAPQKPIYMVMVPSLLHAGTPEKACFLFSHLNETVAVRVSLESVRGNQSLFTDLVVDKDLFHCTSFTVPQSSSDEVMFFTVQVKGATHEFRRRSTVLVKKKESLVFAQTDKPIYKPGQTVRFRVVSLDESFHPLNELIPLLYIQDPKNNRIAQWQNFNLEGGLKQLSFPLSSEPTQGSYKVVIRTESGRTVEHPFSVEEFVLPKFEVRVTVPETITILEEEMNVSVCGIYTYGKPVPGRVTVNICRKYSNPSNCFGEESVAFCEKLSQQLDGRGCFSQLVKTKSFQLKRQEYEMQLDVHAKIQEEGTGVEETGKGLTKITRTITKLSFVNVDSHFRQGIPFVGQVLLVDGRGTPIPYETIFIGADEANLYINTTTDKHGLARFSINTDDIMGTSLTVRAKYKDSNACYGFRWLTEENVEAWHTAYAVFSPSRSFLHLESLPDKLRCDQTLEVQAHYILNGEAMQELKELVFYYLMMAKGGIVRAGTHVLPLKQGQMRGHFSILISMETDLAPVARLVLYAILPNGEVVGDTAKYEIENCLANKVDLVFRPNSGLPATRALLSVMASPQSLCGLRAVDQSVLLMKPETELSASLIYDLLPVKDLTGFPQGADQREEDTNGCVKQNDTYINGILYSPVQNTNEEDMYGFLKDMGLKVFTNSNIRKPKVCERLRDNKGIPAAYHLVSQSHMDAFLESSESPTETRRSYFPETWIWDLVVVDSAGVAEVEVTVPDTITEWKAGAFCLSNDTGLGLSPVVQFQAFQPFFVELTMPYSVIRGEAFTLKATVLNYLPTCIRVAVQLEASPDFLAAPEEKEQRSHCICMNQRHTASWAVIPKSLGNVNFTVSAEALNSKELCGNEVPVVPEQGKKDTIIKSLLVEPEGLENEVTFNSLLCPMGAEVSELIALKLPSDVVEESARASVTVLGDILGSAMQNTQDLLKMPYGCGEQNMVLFAPNIYVLDYLNETQQLTQEIKTKAIAYLNTGYQRQLNYKHRDGSYSTFGDKPGRNHANTWLTAFVLKSFAQARKYIFIDEVHITQALLWLSQQQKDNGCFRSSGSLLNNAMKGGVEDEVTLSAYITIALLEMSLPVTHPVVRNALFCLDTAWKSARGGAGGSHVYTKALLAYAFALAGNQDTKKEILKSLDEEAVKEEDSVHWTRPQKPSVSVALWYQPQAPSAEVEMTAYVLLAYLTTEPAPTQEDLTAAMLIVKWLTKQQNSHGGFSSTQDTVVALHALSKYGSATFTRAKKAAQVTIHSSGTFSTKFQVNNNNQLLLQRVTLPTVPGDYTVKVTGEGCVYLQTSLKYSVLPREEEFPFTVVVQTLPGTCEDPKAHTSFQISLNISYTGSRSESNMAIADVKMVSGFIPLKPTVKMLERSVHVSRTEVSNNHVLIYLDKVSNQTVNLSFTVQQDIPIRDLKPAVVKVYDYYEKDEFAVAKYSAPCSTDYGNA
For the molecule B1, the “RGC losses compared to vehicle PBS” value runs as follows: (2 weeks after single intraocular injection of 1-2 μg in normal eyes) 11±3%; (4 weeks after single intraocular injection of 1-2 μg in normal eyes) 28±11%.

Source of the values: US8563520B2, “Treatment of ocular disease with inhibitors of alpha2 macroglobulin protein” (McGill University, priority 2005, dated 2013).
